Measured values: patent publication US20230183233A1, “Bicyclic Pyridin-2-one and pyrimidin-4-one Derivatives Useful As a Factor XIa Inhibitors” (Janssen Pharmaceutica NV, priority 2021, published 2023)

Tested on: Cc1cc(=O)oc2cc(NC(=O)[C@H](CCCNC(=N)N)NC(=O)[C@@H]3CCCN3C(=O)CNC(=O)OCc3ccccc3)ccc12
Assay: Kallikrein inhibition assay utilizing a quenched AMC peptide substrate (FLINT, kinetic read)
Type: biochemical, human
Details: other: peptide substrate for kallikrein; titration data fit to the Michaelis-Menten equation; pH 7.5

Sequence of human plasma kallikrein (Homo sapiens) (chain, as listed by the source): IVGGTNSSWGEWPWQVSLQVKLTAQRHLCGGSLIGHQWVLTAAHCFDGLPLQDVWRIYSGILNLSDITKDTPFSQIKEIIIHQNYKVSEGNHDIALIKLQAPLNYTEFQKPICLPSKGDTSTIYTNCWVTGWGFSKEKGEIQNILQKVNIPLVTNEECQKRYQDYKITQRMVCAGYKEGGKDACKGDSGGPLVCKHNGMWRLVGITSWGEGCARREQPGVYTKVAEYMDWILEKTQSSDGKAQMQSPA

## human plasma kallikrein (Homo sapiens)
  Km: 40 µM
  kcat: 0.76 s⁻¹
  kcat/Km: 18932 M-is-1
